Source: article PMC12095075

Target: HIF2A N-terminal region (bHLH-PAS);BMAL1 N-terminal region (bHLH-PAS) (mouse;mouse) (UniProt P97481+Q9WTL8)
Assay: SPR
Settings: 1:1 fit, error is fit error, SPR: 20 mM MES pH 5.5, 300 mM NaCl, 0.05% Tween-20, 0.02% BSA, EMSA: 10 mM MES pH 6.0, 50 mM KCl, 1 mM DTT, 2.5% glycerol, 0.05% NP-40, 5 mM MgCl2, room …

Chain of HIF2A N-terminal region (bHLH-PAS);BMAL1 N-terminal region (bHLH-PAS) (mouse;mouse) (P97481 3-361, chain 1 of 2): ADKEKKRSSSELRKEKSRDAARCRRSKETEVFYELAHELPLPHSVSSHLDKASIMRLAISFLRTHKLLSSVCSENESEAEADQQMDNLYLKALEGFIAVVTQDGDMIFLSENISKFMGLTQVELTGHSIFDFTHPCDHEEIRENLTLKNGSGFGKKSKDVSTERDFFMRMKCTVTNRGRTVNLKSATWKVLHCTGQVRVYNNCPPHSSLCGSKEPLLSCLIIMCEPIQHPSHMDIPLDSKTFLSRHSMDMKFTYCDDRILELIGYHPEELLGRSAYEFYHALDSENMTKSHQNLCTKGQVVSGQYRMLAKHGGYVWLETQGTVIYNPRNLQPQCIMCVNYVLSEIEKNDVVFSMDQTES
Chain of HIF2A N-terminal region (bHLH-PAS);BMAL1 N-terminal region (bHLH-PAS) (mouse;mouse) (Q9WTL8 68-488, chain 2 of 2): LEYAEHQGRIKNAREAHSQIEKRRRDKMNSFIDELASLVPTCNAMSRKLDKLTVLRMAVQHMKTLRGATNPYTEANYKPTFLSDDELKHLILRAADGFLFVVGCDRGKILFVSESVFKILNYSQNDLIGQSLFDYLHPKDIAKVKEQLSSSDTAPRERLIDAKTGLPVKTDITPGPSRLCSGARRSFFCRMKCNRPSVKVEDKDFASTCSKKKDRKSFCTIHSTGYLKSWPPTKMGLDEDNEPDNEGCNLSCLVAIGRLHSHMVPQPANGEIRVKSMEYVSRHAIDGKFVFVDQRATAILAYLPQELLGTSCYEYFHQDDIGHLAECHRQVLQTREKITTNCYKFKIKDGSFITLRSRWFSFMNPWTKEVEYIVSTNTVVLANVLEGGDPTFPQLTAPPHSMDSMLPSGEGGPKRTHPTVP

| Substance | Kd (ka 2.10e5 1/(M*s), kd 7.85e-4 1/s) | Kd (ka 1.75e5 1/(M*s), kd 8.45e-4 1/s) |
| --- | --- | --- |
| 22-bp E-box duplex, SPR | 3.74 nM |  |
| 22-bp HRE duplex, SPR |  | 4.84 nM |
